Source: patent US6676943

Target: human complement protein C3, P01024
Sequence (P01024 whole entry, looked up): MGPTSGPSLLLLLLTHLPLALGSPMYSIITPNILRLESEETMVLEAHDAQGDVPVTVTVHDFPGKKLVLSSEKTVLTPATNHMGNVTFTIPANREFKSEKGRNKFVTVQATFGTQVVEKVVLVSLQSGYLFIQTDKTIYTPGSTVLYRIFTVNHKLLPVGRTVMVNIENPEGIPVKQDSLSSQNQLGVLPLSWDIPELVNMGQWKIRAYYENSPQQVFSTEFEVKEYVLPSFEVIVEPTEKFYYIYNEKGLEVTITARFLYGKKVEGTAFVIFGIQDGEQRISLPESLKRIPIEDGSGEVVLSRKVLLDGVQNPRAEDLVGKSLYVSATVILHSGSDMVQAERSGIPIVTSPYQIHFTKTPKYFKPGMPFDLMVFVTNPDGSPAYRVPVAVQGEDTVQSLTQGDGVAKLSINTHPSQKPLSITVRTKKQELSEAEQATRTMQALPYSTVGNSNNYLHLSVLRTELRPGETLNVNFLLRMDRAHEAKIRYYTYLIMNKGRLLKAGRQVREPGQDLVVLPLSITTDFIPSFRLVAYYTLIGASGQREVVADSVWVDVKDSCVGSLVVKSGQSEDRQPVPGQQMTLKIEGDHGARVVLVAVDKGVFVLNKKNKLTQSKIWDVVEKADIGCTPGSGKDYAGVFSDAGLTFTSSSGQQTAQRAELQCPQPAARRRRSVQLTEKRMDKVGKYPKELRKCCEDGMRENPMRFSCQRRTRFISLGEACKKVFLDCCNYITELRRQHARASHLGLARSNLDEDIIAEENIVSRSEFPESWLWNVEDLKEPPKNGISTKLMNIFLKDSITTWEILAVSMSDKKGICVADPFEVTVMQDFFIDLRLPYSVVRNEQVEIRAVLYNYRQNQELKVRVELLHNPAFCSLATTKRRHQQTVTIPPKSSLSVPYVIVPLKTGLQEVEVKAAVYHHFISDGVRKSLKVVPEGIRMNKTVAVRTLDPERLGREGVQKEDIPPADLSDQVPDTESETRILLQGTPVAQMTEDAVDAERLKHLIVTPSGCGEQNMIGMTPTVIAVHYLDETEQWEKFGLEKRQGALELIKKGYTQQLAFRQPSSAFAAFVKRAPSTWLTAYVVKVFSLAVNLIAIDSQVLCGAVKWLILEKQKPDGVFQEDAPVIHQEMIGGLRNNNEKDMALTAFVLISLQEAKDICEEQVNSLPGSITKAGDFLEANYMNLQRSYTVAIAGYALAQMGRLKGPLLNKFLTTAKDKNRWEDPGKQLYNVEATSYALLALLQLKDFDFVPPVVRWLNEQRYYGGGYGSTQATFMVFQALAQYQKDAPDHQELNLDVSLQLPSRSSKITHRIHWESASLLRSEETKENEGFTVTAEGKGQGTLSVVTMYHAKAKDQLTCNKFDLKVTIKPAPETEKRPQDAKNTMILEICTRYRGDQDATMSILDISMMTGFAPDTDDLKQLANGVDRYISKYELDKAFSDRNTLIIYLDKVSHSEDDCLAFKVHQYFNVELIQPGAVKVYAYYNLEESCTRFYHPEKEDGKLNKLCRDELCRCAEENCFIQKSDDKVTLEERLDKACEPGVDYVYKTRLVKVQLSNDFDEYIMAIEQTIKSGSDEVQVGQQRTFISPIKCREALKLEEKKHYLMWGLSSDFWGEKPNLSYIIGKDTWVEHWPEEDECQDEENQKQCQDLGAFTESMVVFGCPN

B1: His-tagged CppA protein (recombinant C3-degrading proteinase of Streptococcus pneumoniae encoded by ORF3 / cppA) (protein)
chain: MNVNQIVRIIPTLKANNRKLNETFYIETLGMKALLEESAFLSLGDQTGLEKLVLEEAPSMRTRKVEGRKKLARLIVKVENPLEIEGILSKTDSIHRLYKGQNGYAFEIFSPEDDLILIHAEDDIASLVEVGEKPEFQTDLASISLSKFEISMELHLPTDIESFLESSEIGASLDFIPAQGQDLTVDNTVTWDLSMLKFLVNELDIASLRQKFESTEYFIPKSEKFFLGKDRNNVELWFEEV
With B1 the “C3 degradation (4 hrs at 37 C in PBS; reducing SDS-PAGE and Western Blot with polyclonal anti-C3)” value was “the protein degraded human C3 protein. Both α and β chains of C3 molecules were susceptible to degradation” and the “C3 degradation (4 hrs at 37 C in PBS; reducing SDS-PAGE and Western immunoblotting with polyclonal anti-C3)” value was “the samples that contained the expressed protein degraded C3 molecules ... the α chain was almost completely degraded while the β chain was partially degraded in the ORF3 samples”.
